Assay results: PMC9482650, “Quantitative fragmentomics allow affinity mapping of interactomes” (Nature Communications, 2022)

Tests used:
Experiment in all cases: holdup assay
Set-up in all cases: key: below the threshold = too weak to quantify, mostly under pKd 3.1 to 4
APBA2_1, Q99767 = target: T1, APBA2_1, Q99767
T1 sequence (Q99767 563-664, limits assumed, looked up): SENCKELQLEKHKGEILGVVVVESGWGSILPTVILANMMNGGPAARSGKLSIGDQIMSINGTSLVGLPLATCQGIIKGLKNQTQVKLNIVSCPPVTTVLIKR

APBA3_1, O96018 = target: T2, APBA3_1, O96018
T2 sequence (O96018 389-490, limits assumed, looked up): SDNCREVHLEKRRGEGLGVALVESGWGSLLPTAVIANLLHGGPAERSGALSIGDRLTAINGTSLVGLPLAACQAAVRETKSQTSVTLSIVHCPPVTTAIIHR

DFNB31_3, Q9P202 = target: T3, DFNB31_3, Q9P202
T3 sequence (Q9P202 811-907, limits assumed, looked up): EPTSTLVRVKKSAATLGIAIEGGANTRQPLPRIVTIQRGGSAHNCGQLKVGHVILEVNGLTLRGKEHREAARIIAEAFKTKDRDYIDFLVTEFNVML

DLG2_3, Q15700 = target: DLG2_3, Q15700
DLG4_2, P78352 = target: DLG4_2, P78352
FRMPD2_2, Q68DX3 = target: FRMPD2_2, Q68DX3
FRMPD2_3, Q68DX3 = target: FRMPD2_3, Q68DX3
GIPC2, Q8TF65 = target: GIPC2, Q8TF65
GORASP1, Q9BQQ3 = target: GORASP1, Q9BQQ3
GRIP1_2, Q9Y3R0 = target: T4, GRIP1_2, Q9Y3R0
T4 sequence (Q9Y3R0 145-248, limits assumed, looked up): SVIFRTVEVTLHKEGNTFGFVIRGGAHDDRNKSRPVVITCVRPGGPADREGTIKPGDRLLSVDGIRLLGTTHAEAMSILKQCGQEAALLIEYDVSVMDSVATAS

GRIP2_7, Q9C0E4 = target: GRIP2_7, Q9C0E4
Inadl_1, Q8NI35 = target: Inadl_1, Q8NI35
Inadl_2, Q8NI35 = target: Inadl_2, Q8NI35
MAGI2_6, Q86UL8 = target: MAGI2_6, Q86UL8
NHERF4_2, Q86UT5 = target: NHERF4_2, Q86UT5
PDZD7_3, Q9H5P4 = target: T5, PDZD7_3, Q9H5P4
T5 sequence (Q9H5P4 857-944, limits assumed, looked up): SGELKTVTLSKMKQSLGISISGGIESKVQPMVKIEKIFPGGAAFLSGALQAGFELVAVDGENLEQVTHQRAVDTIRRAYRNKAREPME

PDZRN3_1, Q9UPQ7 = target: T6, PDZRN3_1, Q9UPQ7
T6 sequence (Q9UPQ7 244-349, limits assumed, looked up): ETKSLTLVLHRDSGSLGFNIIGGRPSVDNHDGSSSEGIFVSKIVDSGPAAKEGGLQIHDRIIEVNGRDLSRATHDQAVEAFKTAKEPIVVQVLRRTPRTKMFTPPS

PDZRN4_1, Q6ZMN7 = target: PDZRN4_1, Q6ZMN7
PICK1, Q9NRD5 = target: PICK1, Q9NRD5
PTPN13_1, Q12923 = target: T7, PTPN13_1, Q12923
T7 sequence (Q12923 1088-1188, limits assumed, looked up): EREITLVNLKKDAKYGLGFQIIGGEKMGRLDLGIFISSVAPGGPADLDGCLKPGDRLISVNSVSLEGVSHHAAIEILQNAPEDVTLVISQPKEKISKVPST

PTPN3, P26045 = target: PTPN3, P26045
SCRIB_2, Q14160 = target: SCRIB_2, Q14160
SNTB1, Q13884 = target: T8, SNTB1, Q13884
T8 sequence (Q13884 107-205, limits assumed, looked up): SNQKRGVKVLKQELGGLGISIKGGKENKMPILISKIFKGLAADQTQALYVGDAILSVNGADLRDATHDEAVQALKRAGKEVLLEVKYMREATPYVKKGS

SYNJ2BP, P57105 = target: T9, SYNJ2BP, P57105
T9 sequence (P57105 8-110, limits assumed, looked up): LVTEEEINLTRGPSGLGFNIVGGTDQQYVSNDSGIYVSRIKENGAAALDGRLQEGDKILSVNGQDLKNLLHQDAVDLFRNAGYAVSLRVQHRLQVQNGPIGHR

TIAM2, Q8IVF5 = target: T10, TIAM2, Q8IVF5
T10 sequence (Q8IVF5 885-986, limits assumed, looked up): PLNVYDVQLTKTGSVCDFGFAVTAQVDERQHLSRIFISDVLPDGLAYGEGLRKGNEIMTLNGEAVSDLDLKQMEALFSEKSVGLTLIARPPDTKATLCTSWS

TJP3_3, O95049 = target: T11, TJP3_3, O95049
T11 sequence (O95049 375-456, limits assumed, looked up): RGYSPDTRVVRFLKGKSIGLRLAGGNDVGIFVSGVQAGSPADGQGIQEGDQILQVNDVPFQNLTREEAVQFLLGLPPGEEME

[1] = plain residues with an end cap or a label only (N-terminal biotin on a linker: ado-ado)
[2] = plain residues with an end cap or a label only (N-terminal biotin on a linker: ttds)

GIPC2, Q8TF65, sequence (Q8TF65 112-203): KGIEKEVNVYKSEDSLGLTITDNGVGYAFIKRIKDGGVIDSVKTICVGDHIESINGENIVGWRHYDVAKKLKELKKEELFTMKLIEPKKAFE
PICK1, Q9NRD5, sequence (Q9NRD5 17-115): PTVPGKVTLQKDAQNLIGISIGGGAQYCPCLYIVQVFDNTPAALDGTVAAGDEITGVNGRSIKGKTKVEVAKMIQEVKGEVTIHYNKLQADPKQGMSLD
GORASP1, Q9BQQ3, sequence (Q9BQQ3 1-208): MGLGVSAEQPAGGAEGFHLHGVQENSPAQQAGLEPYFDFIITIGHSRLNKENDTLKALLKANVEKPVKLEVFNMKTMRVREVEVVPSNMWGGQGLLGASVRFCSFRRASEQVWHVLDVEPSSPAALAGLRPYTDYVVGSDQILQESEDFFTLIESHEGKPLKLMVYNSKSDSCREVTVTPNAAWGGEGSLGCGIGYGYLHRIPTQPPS
Inadl_2, Q8NI35, sequence (Q8NI35 238-335): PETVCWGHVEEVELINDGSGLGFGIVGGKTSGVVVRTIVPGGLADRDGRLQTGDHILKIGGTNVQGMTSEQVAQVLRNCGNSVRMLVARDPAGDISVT
GRIP2_7, Q9C0E4, sequence (Q9C0E4 934-1023): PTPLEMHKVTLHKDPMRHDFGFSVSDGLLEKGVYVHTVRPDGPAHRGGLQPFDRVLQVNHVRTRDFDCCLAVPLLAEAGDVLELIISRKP
SCRIB_2, Q14160, sequence (Q14160 857-960): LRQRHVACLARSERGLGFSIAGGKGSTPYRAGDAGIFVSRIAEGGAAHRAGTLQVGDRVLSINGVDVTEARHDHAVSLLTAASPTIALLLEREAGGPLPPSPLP
FRMPD2_3, Q68DX3, sequence (Q68DX3 1073-1166): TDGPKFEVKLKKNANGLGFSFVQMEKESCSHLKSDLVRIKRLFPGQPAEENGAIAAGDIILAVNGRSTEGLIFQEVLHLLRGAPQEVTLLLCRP
DLG4_2, P78352, sequence (P78352 155-259): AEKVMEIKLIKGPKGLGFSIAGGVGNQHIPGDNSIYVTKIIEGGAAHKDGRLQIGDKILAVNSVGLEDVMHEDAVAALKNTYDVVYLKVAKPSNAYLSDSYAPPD
NHERF4_2, Q86UT5, sequence (Q86UT5 220-308): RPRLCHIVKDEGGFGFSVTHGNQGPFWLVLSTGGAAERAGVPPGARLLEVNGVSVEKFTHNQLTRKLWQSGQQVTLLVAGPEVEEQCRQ
Inadl_1, Q8NI35, sequence (Q8NI35 113-229): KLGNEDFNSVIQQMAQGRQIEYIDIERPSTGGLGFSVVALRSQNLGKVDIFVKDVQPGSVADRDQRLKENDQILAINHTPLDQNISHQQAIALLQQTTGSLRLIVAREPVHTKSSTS
PDZRN4_1, Q6ZMN7, sequence (Q6ZMN7 213-318): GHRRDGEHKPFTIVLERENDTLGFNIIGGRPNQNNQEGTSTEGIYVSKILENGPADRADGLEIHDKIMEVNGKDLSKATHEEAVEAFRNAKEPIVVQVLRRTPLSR
MAGI2_6, Q86UL8, sequence (Q86UL8 1141-1229): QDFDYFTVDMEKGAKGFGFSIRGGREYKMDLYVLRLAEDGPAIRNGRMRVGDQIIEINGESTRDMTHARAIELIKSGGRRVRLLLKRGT
FRMPD2_2, Q68DX3, sequence (Q68DX3 944-1038): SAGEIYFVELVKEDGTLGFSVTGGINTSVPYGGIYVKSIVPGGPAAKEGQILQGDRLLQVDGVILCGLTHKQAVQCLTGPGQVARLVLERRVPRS
PTPN3, P26045, sequence (P26045 505-587): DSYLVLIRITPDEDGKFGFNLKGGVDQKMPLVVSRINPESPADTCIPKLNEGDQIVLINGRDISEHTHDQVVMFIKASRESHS

B1: SLC1A3, P43003 (peptide)
chain: EKPIDSETKM
- pKd (APBA2_1, Q99767; [1]): below the threshold
- pKd (APBA3_1, O96018; [1]): below the threshold
- pKd (DFNB31_3, Q9P202; [1]): below the threshold
- pKd (DLG2_3, Q15700; [1]): below the threshold
- pKd (DLG4_2, P78352; [1]): below the threshold
- pKd (FRMPD2_2, Q68DX3; [1]): below the threshold
- pKd (FRMPD2_3, Q68DX3; [1]): below the threshold
- pKd (GIPC2, Q8TF65; [1]): below the threshold
- pKd (GORASP1, Q9BQQ3; [1]): below the threshold
- pKd (GRIP1_2, Q9Y3R0; [1]): below the threshold
- pKd (GRIP2_7, Q9C0E4; [1]): below the threshold
- pKd (Inadl_1, Q8NI35; [1]): below the threshold
- pKd (Inadl_2, Q8NI35; [1]): below the threshold
- pKd (MAGI2_6, Q86UL8; [1]): below the threshold
- pKd (NHERF4_2, Q86UT5; [1]): below the threshold
- pKd (PDZD7_3, Q9H5P4; [1]): below the threshold
- pKd (PDZRN3_1, Q9UPQ7; [1]): below the threshold
- pKd (PDZRN4_1, Q6ZMN7; [1]): below the threshold
- pKd (PICK1, Q9NRD5; [1]): below the threshold
- pKd (PTPN13_1, Q12923; [1]): below the threshold
- pKd (PTPN3, P26045; [1]): 4.25
- pKd (SCRIB_2, Q14160; [1]): below the threshold
- pKd (SNTB1, Q13884; [1]): below the threshold
- pKd (SYNJ2BP, P57105; [1]): below the threshold
- pKd (TIAM2, Q8IVF5; [1]): below the threshold
- pKd (TJP3_3, O95049; [1]): below the threshold

B2: RASSF6, Q6ZTQ3 (peptide)
chain: KLVIKTETTV
- pKd (APBA2_1, Q99767; [2]): below the threshold
- pKd (APBA3_1, O96018; [2]): below the threshold
- pKd (DFNB31_3, Q9P202; [2]): below the threshold
- pKd (DLG2_3, Q15700; [2]): 4.49
- pKd (DLG4_2, P78352; [2]): 5.48
- pKd (FRMPD2_2, Q68DX3; [2]): below the threshold
- pKd (FRMPD2_3, Q68DX3; [2]): below the threshold
- pKd (GIPC2, Q8TF65; [2]): below the threshold
- pKd (GORASP1, Q9BQQ3; [2]): below the threshold
- pKd (GRIP1_2, Q9Y3R0; [2]): below the threshold
- pKd (GRIP2_7, Q9C0E4; [2]): below the threshold
- pKd (Inadl_1, Q8NI35; [2]): below the threshold
- pKd (Inadl_2, Q8NI35; [2]): below the threshold
- pKd (MAGI2_6, Q86UL8; [2]): below the threshold
- pKd (NHERF4_2, Q86UT5; [2]): below the threshold
- pKd (PDZD7_3, Q9H5P4; [2]): 4.39
- pKd (PDZRN3_1, Q9UPQ7; [2]): 3.82
- pKd (PDZRN4_1, Q6ZMN7; [2]): 4.15
- pKd (PICK1, Q9NRD5; [2]): below the threshold
- pKd (PTPN13_1, Q12923; [2]): below the threshold
- pKd (PTPN3, P26045; [2]): 4.44
- pKd (SCRIB_2, Q14160; [2]): 3.95
- pKd (SNTB1, Q13884; [2]): 4.14
- pKd (SYNJ2BP, P57105; [2]): 4.97
- pKd (TIAM2, Q8IVF5; [2]): below the threshold
- pKd (TJP3_3, O95049; [2]): below the threshold
